Target: HLA-A*02:01 (Homo sapiens, UniProt P04439, D140Y/D185E/D98H/E176V/E277Q/G131W/G231S/I119V/I121R/I166T/I218V/L300P/L318F/N151K/N90K/P208A/P217A/Q86G/Q94H/R138H/R169H/T345S)
Test: MHC binding assay (UV-ligand exchange, beta2m ELISA, peptide exchange yield)
Conditions: binding to HLA-A*02:01 ranged by peptide exchange yield, β2m ELISA
Text: Candidate peptides for T cell based therapies according to the present invention were further tested for their MHC binding capacity (affinity). The individual peptide-MHC complexes were produced by UV-ligand exchange, where a UV-sensitive peptide is cleaved upon UV-irradiation, and exchanged with the peptide of interest as analyzed. Only peptide candidates that can effectively bind and stabilize the peptide-receptive MHC molecules prevent dissociation of the MHC complexes. To determine the yield of the exchange reaction, an ELISA was performed based on the detection of the light chain (β2m) of stabilized MHC complexes. The assay was performed as generally described in Rodenko et al. (Rodenko et al., 2006).
96 well MAXISorp plates (NUNC) were coated over night with 2 ug/ml streptavidin in PBS at room temperature, washed 4× and blocked for 1 h at 37° C. in 2% BSA containing blocking buffer. Refolded HLA-A*02:01/MLA-001 monomers served as standards, covering the range of 15-500 ng/ml. Peptide-MHC monomers of the UV-exchange reaction were diluted 100 fold in blocking buffer. Samples were incubated for 1 h at 37° C., washed four times, incubated with 2 ug/ml HRP conjugated anti-β2m for 1h at 37° C., washed again and detected with TMB solution that is stopped with […]. Absorption was measured at 450 nm. Candidate peptides that show a high exchange yield (preferably higher than 50%, most preferred higher than 75%) are generally preferred for a generation and production of antibodies or fragments thereof, and/or T cell receptors or fragments thereof, as they show sufficient avidity to the MHC molecules and prevent dissociation of the MHC complexes.

Substance | Peptide exchange (MHC class I binding score)
4 (FLSQDIITV; listed as Homo sapiens) [compound 4] | +++ (≥50 = +++)
50 (SLSDHIVLL; listed as Homo sapiens) [compound 50] | ++ (≥20% = ++)
63 (GLIEDHFDVTV; listed as Homo sapiens) [compound 63] | ++ (≥20% = ++)
113 (SLFDWNVKL; listed as Homo sapiens) [compound 113] | +++ (≥50 = +++)
90 (FTLEKNFVI; listed as Homo sapiens) [compound 90] | ++ (≥20% = ++)
41 (GLLKTLQKL; listed as Homo sapiens) [compound 41] | ++ (≥20% = ++)
106 (VLMDLKALL; listed as Homo sapiens) [compound 106] | +++ (≥50 = +++)
37 (VLAPVILML; listed as Homo sapiens) [compound 37] | ++ (≥20% = ++)
99 (GLAPHLEQI; listed as Homo sapiens) [compound 99] | ++ (≥20% = ++)
80 (KLASMLETL; listed as Homo sapiens) [compound 80] | +++ (≥50 = +++)
70 (SLTALRLLL; listed as Homo sapiens) [compound 70] | ++ (≥20% = ++)
82 (SLLQATDFMSL; listed as Homo sapiens) [compound 82] | +++ (≥50 = +++)
51 (NLWPMILTL; listed as Homo sapiens) [compound 51] | +++ (≥50 = +++)
96 (TLAETLVNL; listed as Homo sapiens) [compound 96] | +++ (≥50 = +++)
68 (YVLTQPPSV; listed as Homo sapiens) [compound 68] | ++ (≥20% = ++)
5 (YLYPNLTRL; listed as Homo sapiens) [compound 5] | ++ (≥20% = ++)
8 (GLASFKSFL; listed as Homo sapiens) [compound 8] | ++ (≥20% = ++)
103 (KLQDGLLHI; listed as Homo sapiens) [compound 103] | ++ (≥20% = ++)
59 (SLKNNVVSV; listed as Homo sapiens) [compound 59] | +++ (≥50 = +++)
101 (HIYDKAFITV; listed as Homo sapiens) [compound 101] | ++ (≥20% = ++)
73 (GLDGIPFTV; listed as Homo sapiens) [compound 73] | +++ (≥50 = +++)
58 (FLVDFEQSHL; listed as Homo sapiens) [compound 58] | ++++ (≥75% = ++++)
33 (FIADVVEKI; listed as Homo sapiens) [compound 33] | ++ (≥20% = ++)
102 (LLFDVHTTL; listed as Homo sapiens) [compound 102] | +++ (≥50 = +++)
43 (YLKDELDEL; listed as Homo sapiens) [compound 43] | +++ (≥50 = +++)
28 (FIADLVVGL; listed as Homo sapiens) [compound 28] | ++ (≥20% = ++)
111 (TLLETEMLL; listed as Homo sapiens) [compound 111] | ++ (≥20% = ++)
45 (ALLGIPLTL; listed as Homo sapiens) [compound 45] | +++ (≥50 = +++)
47 (TLAEVRAVQEI; listed as Homo sapiens) [compound 47] | +++ (≥50 = +++)
78 (ALLDTVVQA; listed as Homo sapiens) [compound 78] | ++ (≥20% = ++)

Now from value to substance:

Peptide exchange (MHC class I binding score) | Substance
+++ (≥50 = +++) | 85 (FVMSEIRTV; listed as Homo sapiens) [compound 85]
+++ (≥50 = +++) | 23 (YIQEVVQYI; listed as Homo sapiens) [compound 23]
++ (≥20% = ++) | 10 (KLLQNNYGL; listed as Homo sapiens) [compound 10]
++ (≥20% = ++) | 42 (VILDTGTIQL; listed as Homo sapiens) [compound 42]
+++ (≥50 = +++) | 56 (ILMDFSNSM; listed as Homo sapiens) [compound 56]
++ (≥20% = ++) | 53 (FLLEIRQTL; listed as Homo sapiens) [compound 53]
++ (≥20% = ++) | 76 (VLADDHLIEV; listed as Homo sapiens) [compound 76]
++++ (≥75% = ++++) | 93 (GVMAGDIYSV; listed as Homo sapiens) [compound 93]
++ (≥20% = ++) | 86 (GLLQGKLALL; listed as Homo sapiens) [compound 86]
+++ (≥50 = +++) | 39 (YLLNLNHLGL; listed as Homo sapiens) [compound 39]
++ (≥20% = ++) | 66 (TLLKTIIKV; listed as Homo sapiens) [compound 66]
++ (≥20% = ++) | 91 (MLLSSLVSL; listed as Homo sapiens) [compound 91]
+++ (≥50 = +++) | 27 (SLSDLLVSL; listed as Homo sapiens) [compound 27]
+++ (≥50 = +++) | 74 (GLFHKQVTV; listed as Homo sapiens) [compound 74]
+++ (≥50 = +++) | 62 (VLAGPAFLVQL; listed as Homo sapiens) [compound 62]
+++ (≥50 = +++) | 44 (ALFSFVTAL; listed as Homo sapiens) [compound 44]
++ (≥20% = ++) | 72 (YSLEKVFGI; listed as Homo sapiens) [compound 72]
+++ (≥50 = +++) | 13 (KIMAQILTV; listed as Homo sapiens) [compound 13]
++ (≥20% = ++) | 65 (IIYGGSVTGA; listed as Homo sapiens) [compound 65]

Peptide exchange (MHC class I binding score) | Substance
++ (≥20% = ++) | 88 (TLAELHISL; listed as Homo sapiens) [compound 88]
++ (≥20% = ++) | 25 (LLVPAHLVAA; listed as Homo sapiens) [compound 25]
+++ (≥50 = +++) | 112 (LLFDHLEPIEL; listed as Homo sapiens) [compound 112]
++ (≥20% = ++) | 100 (KLNVAPLAV; listed as Homo sapiens) [compound 100]
+++ (≥50 = +++) | 60 (ILWKDIEYV; listed as Homo sapiens) [compound 60]
++ (≥20% = ++) | 84 (YLMDEGAHL; listed as Homo sapiens) [compound 84]
++ (≥20% = ++) | 55 (YLALILPVL; listed as Homo sapiens) [compound 55]
++ (≥20% = ++) | 69 (ILADLLPSL; listed as Homo sapiens) [compound 69]
++ (≥20% = ++) | 12 (ALDPSGNQLI; listed as Homo sapiens) [compound 12]
++ (≥20% = ++) | 57 (SLQKEILYL; listed as Homo sapiens) [compound 57]
++ (≥20% = ++) | 97 (TLISELVQA; listed as Homo sapiens) [compound 97]
+++ (≥50 = +++) | 49 (VLIVEVPGV; listed as Homo sapiens) [compound 49]
+++ (≥50 = +++) | 40 (YIQEHLLQI; listed as Homo sapiens) [compound 40]
+++ (≥50 = +++) | 71 (ALDGHLYAV; listed as Homo sapiens) [compound 71]
++ (≥20% = ++) | 54 (ALVAKGLVQA; listed as Homo sapiens) [compound 54]
++ (≥20% = ++) | 21 (RLIQGDQILSV; listed as Homo sapiens) [compound 21]
+++ (≥50 = +++) | 46 (GLSEVLVQI; listed as Homo sapiens) [compound 46]
+++ (≥50 = +++) | 79 (ALADIVWRA; listed as Homo sapiens) [compound 79]
+++ (≥50 = +++) | 83 (IQWSIVPEV; listed as Homo sapiens) [compound 83]

Source: patent US12059458B2, “Peptides and combination of peptides and scaffolds for use in immunotherapy against renal cell carcinoma (RCC) and other cancers” (Immatics Biotechnologies GmbH, priority 2015, dated 2024)
